Results reported in patent publication US20180086849A1 (Hoffmann-La Roche, published 2018).

T1: hu-MCSP(D3 domain)-avi-his (human, UniProt Q6UVK1 1582-2224, biotinylated where used for selection or for coupling to the SA chip)
T1 construct: also called human MCSP(D3 domain)-avi-his; human MCSP D3
T1 sequence: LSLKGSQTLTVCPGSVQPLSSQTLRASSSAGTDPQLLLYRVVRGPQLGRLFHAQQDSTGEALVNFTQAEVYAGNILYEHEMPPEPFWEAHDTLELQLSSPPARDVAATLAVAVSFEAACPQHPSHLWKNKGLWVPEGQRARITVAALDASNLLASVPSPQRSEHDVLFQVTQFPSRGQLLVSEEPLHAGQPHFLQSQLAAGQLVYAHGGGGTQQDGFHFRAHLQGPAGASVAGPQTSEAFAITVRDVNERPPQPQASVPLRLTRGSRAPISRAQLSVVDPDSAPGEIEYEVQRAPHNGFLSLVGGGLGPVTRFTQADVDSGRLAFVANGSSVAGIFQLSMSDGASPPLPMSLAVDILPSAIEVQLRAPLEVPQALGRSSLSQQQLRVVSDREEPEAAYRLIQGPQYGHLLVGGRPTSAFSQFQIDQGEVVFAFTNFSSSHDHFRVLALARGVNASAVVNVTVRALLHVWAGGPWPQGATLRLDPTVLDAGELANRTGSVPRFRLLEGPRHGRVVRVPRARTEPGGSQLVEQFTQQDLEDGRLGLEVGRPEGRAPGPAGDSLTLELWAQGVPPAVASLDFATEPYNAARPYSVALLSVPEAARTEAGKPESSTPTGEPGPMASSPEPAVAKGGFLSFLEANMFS

T2: cynomolgus MCSP D3 (cynomolgus, UniProt Q6UVK1 1582-2224 (human entry))
T2 construct: also called cynomolgus homologue; not shown: C-terminal tag
T2 chain: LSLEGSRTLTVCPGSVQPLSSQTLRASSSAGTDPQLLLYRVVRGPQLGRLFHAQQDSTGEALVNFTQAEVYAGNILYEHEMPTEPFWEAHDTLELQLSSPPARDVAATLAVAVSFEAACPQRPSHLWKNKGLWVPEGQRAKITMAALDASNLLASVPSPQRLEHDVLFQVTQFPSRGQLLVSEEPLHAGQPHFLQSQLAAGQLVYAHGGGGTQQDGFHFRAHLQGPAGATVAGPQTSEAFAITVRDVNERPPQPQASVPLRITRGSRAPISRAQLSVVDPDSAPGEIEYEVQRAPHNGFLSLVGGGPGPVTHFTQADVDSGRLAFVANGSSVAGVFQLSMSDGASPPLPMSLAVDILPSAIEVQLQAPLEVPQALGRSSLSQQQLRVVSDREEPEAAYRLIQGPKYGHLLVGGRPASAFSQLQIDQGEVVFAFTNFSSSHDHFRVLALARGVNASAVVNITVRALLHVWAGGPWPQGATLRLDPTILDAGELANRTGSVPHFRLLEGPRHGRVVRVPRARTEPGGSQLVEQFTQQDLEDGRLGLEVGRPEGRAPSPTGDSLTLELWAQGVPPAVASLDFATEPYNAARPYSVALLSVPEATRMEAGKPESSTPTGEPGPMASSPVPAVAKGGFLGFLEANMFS


Tests used:
[1] = biological target: human MCSP (Melanoma-associated Chondroitin Sulfate Proteoglycan) on cells (human, UniProt Q6UVK1 30-2322); assay: cell-based or functional assay
[2] = biological target: T1, hu-MCSP(D3 domain)-avi-his; assay: SPR (ProteOn XPR36), IgG KD against parental M4-3/ML2
Protocol: (§1) Briefly, carboxymethylated dextran biosensor chips (CM5, GE Healthcare) were activated with N-ethyl-N′-(3-dimethylaminopropyl)-carbodiimide hydrochloride (EDC) and N-hydroxysuccinimide (NHS) according to the supplier's instructions. Anti-human F(ab′)2 fragment specific capture antibody was diluted with 10 mM sodium acetate, pH 5.0 at 50 μg/ml before injection at a flow rate of 10 μl/minute to achieve approximately up to 10.000 response units (RU) of coupled capture antibody. Following the injection of the capture antibody, 1 M ethanolamine was injected to block unreacted groups. For kinetics measurements, Fabs from bacterial supernatant or purified Fabs are injected at a flow rate of 10 ul/minute for 300 s and a dissociation of 300 s for capture baseline stabilization. […] The surface of the sensorchip was regenerated by injection of glycine pH 1.5 for 30 s at 90 ul/min followed by injection of NaOH for 20 s at the same flow rate. Association rates (kon) and dissociation rates (koff) were calculated using a simple one-to-one Langmuir binding model (ProteOn XPR36 Evaluation Software or Scrubber software (BioLogic)) by simultaneously fitting the association and dissociation sensorgrams. The equilibrium dissociation constant (KD) was calculated as the ratio koff/kon. […] Since CDR1 and 2 of the light chain were randomized independent from CDR3, the obtained CDRs were combined during IgG conversion.
(§2) In the IgG format affinities were measured again to the human MCSP antigen (SEQ ID NO. 390), in addition also to the cynomolgus homologue (SEQ ID NO. 389). Method exactly as described for the Fab fragments, just purified IgG from mammalian production were used.

[3] = biological target: T2, cynomolgus MCSP D3; assay: as above
Protocol: as §1, §2

Sequence of human MCSP (Melanoma-associated Chondroitin Sulfate Proteoglycan) on cells (Q6UVK1 30-2322): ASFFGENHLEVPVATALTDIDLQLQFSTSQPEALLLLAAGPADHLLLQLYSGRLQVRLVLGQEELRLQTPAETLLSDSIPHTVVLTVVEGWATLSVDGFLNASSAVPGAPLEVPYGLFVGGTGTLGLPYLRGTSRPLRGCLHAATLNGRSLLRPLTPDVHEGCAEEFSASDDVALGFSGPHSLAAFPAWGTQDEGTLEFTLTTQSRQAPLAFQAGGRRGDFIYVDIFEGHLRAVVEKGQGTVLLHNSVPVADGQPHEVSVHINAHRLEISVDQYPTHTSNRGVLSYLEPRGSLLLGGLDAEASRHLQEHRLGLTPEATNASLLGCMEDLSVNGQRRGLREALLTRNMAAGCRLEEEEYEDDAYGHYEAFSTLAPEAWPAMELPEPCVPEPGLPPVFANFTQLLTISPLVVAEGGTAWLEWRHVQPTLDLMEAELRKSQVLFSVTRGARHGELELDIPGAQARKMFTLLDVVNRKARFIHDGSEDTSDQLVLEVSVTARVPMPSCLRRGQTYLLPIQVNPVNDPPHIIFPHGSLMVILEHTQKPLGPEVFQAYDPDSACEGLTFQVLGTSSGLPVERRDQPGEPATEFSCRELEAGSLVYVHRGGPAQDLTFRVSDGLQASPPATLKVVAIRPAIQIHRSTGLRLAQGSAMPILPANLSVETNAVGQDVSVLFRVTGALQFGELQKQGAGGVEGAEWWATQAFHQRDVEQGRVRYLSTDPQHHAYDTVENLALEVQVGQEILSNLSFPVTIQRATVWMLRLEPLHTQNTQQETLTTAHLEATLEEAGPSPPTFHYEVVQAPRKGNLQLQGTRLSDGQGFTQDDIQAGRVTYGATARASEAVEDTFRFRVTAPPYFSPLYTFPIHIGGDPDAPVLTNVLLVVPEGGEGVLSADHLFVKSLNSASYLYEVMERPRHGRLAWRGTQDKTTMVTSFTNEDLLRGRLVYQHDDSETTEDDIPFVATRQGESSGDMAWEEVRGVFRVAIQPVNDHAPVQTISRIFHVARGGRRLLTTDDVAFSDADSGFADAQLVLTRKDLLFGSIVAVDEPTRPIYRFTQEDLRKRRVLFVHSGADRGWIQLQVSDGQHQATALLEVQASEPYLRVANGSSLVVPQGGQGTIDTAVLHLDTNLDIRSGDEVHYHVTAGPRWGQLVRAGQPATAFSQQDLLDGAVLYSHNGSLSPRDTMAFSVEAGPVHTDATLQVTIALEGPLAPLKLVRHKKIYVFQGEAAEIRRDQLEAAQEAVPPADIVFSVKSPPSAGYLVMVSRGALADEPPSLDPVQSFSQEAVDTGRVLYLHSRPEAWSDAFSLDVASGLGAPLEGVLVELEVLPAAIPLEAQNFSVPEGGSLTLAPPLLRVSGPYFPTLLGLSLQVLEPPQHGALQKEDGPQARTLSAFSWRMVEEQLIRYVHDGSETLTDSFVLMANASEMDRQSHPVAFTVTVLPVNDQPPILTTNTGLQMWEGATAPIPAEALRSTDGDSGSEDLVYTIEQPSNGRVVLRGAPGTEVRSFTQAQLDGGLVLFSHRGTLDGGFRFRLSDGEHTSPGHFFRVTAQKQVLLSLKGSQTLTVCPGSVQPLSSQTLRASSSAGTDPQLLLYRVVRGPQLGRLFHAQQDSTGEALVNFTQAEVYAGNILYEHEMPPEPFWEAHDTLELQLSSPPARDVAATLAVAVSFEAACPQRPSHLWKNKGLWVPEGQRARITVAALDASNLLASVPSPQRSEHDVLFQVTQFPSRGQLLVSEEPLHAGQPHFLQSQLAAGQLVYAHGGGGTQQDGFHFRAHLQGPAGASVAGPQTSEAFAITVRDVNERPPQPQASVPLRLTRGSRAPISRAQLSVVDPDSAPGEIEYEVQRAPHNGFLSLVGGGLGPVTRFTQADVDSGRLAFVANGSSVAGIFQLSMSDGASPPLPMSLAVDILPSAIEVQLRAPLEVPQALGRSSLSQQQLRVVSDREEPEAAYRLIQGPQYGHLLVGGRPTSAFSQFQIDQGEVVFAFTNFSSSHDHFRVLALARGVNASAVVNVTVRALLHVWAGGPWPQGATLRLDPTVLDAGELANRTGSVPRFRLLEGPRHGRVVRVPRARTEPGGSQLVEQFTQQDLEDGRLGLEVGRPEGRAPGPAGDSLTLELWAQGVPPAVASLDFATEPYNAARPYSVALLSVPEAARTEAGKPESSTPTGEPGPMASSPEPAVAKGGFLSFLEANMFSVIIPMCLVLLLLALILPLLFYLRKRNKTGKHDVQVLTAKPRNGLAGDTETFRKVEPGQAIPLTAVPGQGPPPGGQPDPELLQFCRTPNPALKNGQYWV

Binder	EC50 of T cell-mediated killing (LDH release) of MV-3 cells, human PBMCs, 21 h [1] [nM]	EC50 of T cell-mediated killing (LDH release) of WM266-4 cells, human PBMCs, 21 h [1] [nM]	EC50 of T cell-mediated killing (LDH release) of MV-3 cells, human PBMCs, 27 h [1] [nM]	EC50 of T cell-mediated killing (LDH release) of WM266-4 cells, human PBMCs, 26 h [1] [nM]	Comparative binding affinity - Fold increase over parent [2] [fold]	Comparative binding affinity - Fold increase over parent [3] [fold]
1+1 IgG Crossfab; VL/VH exchange (LC007/V9), anti-MCSP/anti-huCD3 (bispecific antibody) chain 1: DIVLTQSPSSLSASLGDRVTISCSASQGIRNYLNWYQQRPDGTVKLLIYYTSSLHSGVPSRFSGSGSGTDYSLTISNLEPEDIATYYCQQYSKLPWTFGGGTKLEIKRTVAAPSVFIFPPSDEQLKSGTASVVCLLNNFYPREAKVQWKVDNALQSGNSQESVTEQDSKDSTYSLSSTLTLSKADYEKHKVYACEVTHQGLSSPVTKSFNRGEC chain 2: DIQMTQSPSSLSASVGDRVTITCRASQDIRNYLNWYQQKPGKAPKLLIYYTSRLESGVPSRFSGSGSGTDYTLTISSLQPEDFATYYCQQGNTLPWTFGQGTKVEIKSSASTKGPSVFPLAPSSKSTSGGTAALGCLVKDYFPEPVTVSWNSGALTSGVHTFPAVLQSSGLYSLSSVVTVPSSSLGTQTYICNVNHKPSNTKVDKKVEPKSCGGGGSGGGGSEVQLQESGPGLVKPSQSLSLTCSVTGYSITSGYYWNWIRQFPGNKLEWMGYITYDGSNNYNPSLKNRISITRDTSKNQFFLKLNSVTTEDTATYYCADFDYWGQGTTLTVSSASTKGPSVFPLAPSSKSTSGGTAALGCLVKDYFPEPVTVSWNSGALTSGVHTFPAVLQSSGLYSLSSVVTVPSSSLGTQTYICNVNHKPSNTKVDKKVEPKSCDKTHTCPPCPAPEAAGGPSVFLFPPKPKDTLMISRTPEVTCVVVDVSHEDPEVKFNWYVDGVEVHNAKTKPREEQYNSTYRVVSVLTVLHQDWLNGKEYKCKVSNKALGAPIEKTISKAKGQPREPQVCTLPPSRDELTKNQVSLSCAVKGFYPSDIAVEWESNGQPENNYKTTPPVLDSDGSFFLVSKLTVDKSRWQQGNVFSCSVMHEALHNHYTQKSLSLSPGK chain 3: EVQLVESGGGLVQPGGSLRLSCAASGYSFTGYTMNWVRQAPGKGLEWVALINPYKGVSTYNQKFKDRFTISVDKSKNTAYLQMNSLRAEDTAVYYCARSGYYGDSDWYFDVWGQGTLVTVSSASVAAPSVFIFPPSDEQLKSGTASVVCLLNNFYPREAKVQWKVDNALQSGNSQESVTEQDSKDSTYSLSSTLTLSKADYEKHKVYACEVTHQGLSSPVTKSFNRGEC chain 4: not shown	0.0409	0.0284	–	–	–	–
1+1 CrossMab; CL/CH1 exchange (LC007/V9), anti-MCSP/anti-huCD3 (bispecific antibody, human IgG1, kappa, L234A L235A) chain 1: DIVLTQSPSSLSASLGDRVTISCSASQGIRNYLNWYQQRPDGTVKLLIYYTSSLHSGVPSRFSGSGSGTDYSLTISNLEPEDIATYYCQQYSKLPWTFGGGTKLEIKRTVAAPSVFIFPPSDEQLKSGTASVVCLLNNFYPREAKVQWKVDNALQSGNSQESVTEQDSKDSTYSLSSTLTLSKADYEKHKVYACEVTHQGLSSPVTKSFNRGEC chain 2: EVQLQESGPGLVKPSQSLSLTCSVTGYSITSGYYWNWIRQFPGNKLEWMGYITYDGSNNYNPSLKNRISITRDTSKNQFFLKLNSVTTEDTATYYCADFDYWGQGTTLTVSSASTKGPSVFPLAPSSKSTSGGTAALGCLVKDYFPEPVTVSWNSGALTSGVHTFPAVLQSSGLYSLSSVVTVPSSSLGTQTYICNVNHKPSNTKVDKKVEPKSCDKTHTCPPCPAPEAAGGPSVFLFPPKPKDTLMISRTPEVTCVVVDVSHEDPEVKFNWYVDGVEVHNAKTKPREEQYNSTYRVVSVLTVLHQDWLNGKEYKCKVSNKALGAPIEKTISKAKGQPREPQVCTLPPSRDELTKNQVSLSCAVKGFYPSDIAVEWESNGQPENNYKTTPPVLDSDGSFFLVSKLTVDKSRWQQGNVFSCSVMHEALHNHYTQKSLSLSPGK chain 3: DIQMTQSPSSLSASVGDRVTITCRASQDIRNYLNWYQQKPGKAPKLLIYYTSRLESGVPSRFSGSGSGTDYTLTISSLQPEDFATYYCQQGNTLPWTFGQGTKVEIKSSASTKGPSVFPLAPSSKSTSGGTAALGCLVKDYFPEPVTVSWNSGALTSGVHTFPAVLQSSGLYSLSSVVTVPSSSLGTQTYICNVNHKPSNTKVDKKVEPKSC chain 4: not shown	0.0884	0.0539	–	–	–	–
2+1 IgG Crossfab; VL/VH exchange (M4-3 ML2/V9), anti-MCSP/anti-huCD3 (bispecific antibody) chain 1: EVQLVESGGGLVQPGGSLRLSCAASGYSFTGYTMNWVRQAPGKGLEWVALINPYKGVSTYNQKFKDRFTISVDKSKNTAYLQMNSLRAEDTAVYYCARSGYYGDSDWYFDVWGQGTLVTVSSASVAAPSVFIFPPSDEQLKSGTASVVCLLNNFYPREAKVQWKVDNALQSGNSQESVTEQDSKDSTYSLSSTLTLSKADYEKHKVYACEVTHQGLSSPVTKSFNRGEC chain 2: not shown chain 3: not shown chain 4: QVQLQESGPGLVKPSQTLSLTCTVSGGSITSGYYWNWIRQHPGKGLEWIGYITYDGSNNYNPSLKSRVTISRDTSKNQFSLKLSSVTAADTAVYYCADFDYWGQGTLVTVSSASTKGPSVFPLAPSSKSTSGGTAALGCLVKDYFPEPVTVSWNSGALTSGVHTFPAVLQSSGLYSLSSVVTVPSSSLGTQTYICNVNHKPSNTKVDKKVEPKSCDKTHTCPPCPAPEAAGGPSVFLFPPKPKDTLMISRTPEVTCVVVDVSHEDPEVKFNWYVDGVEVHNAKTKPREEQYNSTYRVVSVLTVLHQDWLNGKEYKCKVSNKALGAPIEKTISKAKGQPREPQVCTLPPSRDELTKNQVSLSCAVKGFYPSDIAVEWESNGQPENNYKTTPPVLDSDGSFFLVSKLTVDKSRWQQGNVFSCSVMHEALHNHYTQKSLSLSPGK	–	–	~0.0822	0.0168	–	–
M4-3/ML2 (E10/G3) (IgG) (antibody, V domains shown, Human IgG1 format) VH: QVQLQESGPGLVKPSQTLSLTCTVSGGSITSGYYWNWIRQHPGKGLEWIGYITYDGSNNYNPSLKSRVTISRDTSKNQFSLKLSSVTAADTAVYYCADFDYWGQGTLVTVSS VL: DIQMTQSPSSLSASVGDRVTITCRASYGIRGYLNWYQQKPGKAPKLLIYYTSSLHSGVPSRFSGSGSGTDFTLTISSLQPEDFATYHCQQYSALPWTFGQGTKVEIK	–	–	–	–	5	2.2
M4-3(C1)/ML2(G3) (IgG) (antibody, V domains shown, Human IgG1; also called MCSP M4-3(C1) ML2(G3)) VH: QVQLQESGPGLVKPSQTLSLTCTVSGGSITSGYYWNWIRQHPGKGLEWIGYITFDGSNNYNPSLKSRVTISRDTSKNQFSLKLSSVTAADTAVYYCADFDYWGQGTLVTVSS VL: DIQMTQSPSSLSASVGDRVTITCRASQGIRNYLNWYQQKPGKAPKLLIYYTSSLHSGVPSRFSGSGSGTDYTLTISSLQPEDFATYYCQQYSALPWTFGQGTKVEIKR	–	–	–	–	28.6	10
2+1 IgG Crossfab; CL/CH1 exchange (M4-3 ML2/V9), anti-MCSP/anti-huCD3 (bispecific antibody) chain 1: DIQMTQSPSSLSASVGDRVTITCRASQDIRNYLNWYQQKPGKAPKLLIYYTSRLESGVPSRFSGSGSGTDYTLTISSLQPEDFATYYCQQGNTLPWTFGQGTKVEIKSSASTKGPSVFPLAPSSKSTSGGTAALGCLVKDYFPEPVTVSWNSGALTSGVHTFPAVLQSSGLYSLSSVVTVPSSSLGTQTYICNVNHKPSNTKVDKKVEPKSC chain 2: not shown chain 3: QVQLQESGPGLVKPSQTLSLTCTVSGGSITSGYYWNWIRQHPGKGLEWIGYITYDGSNNYNPSLKSRVTISRDTSKNQFSLKLSSVTAADTAVYYCADFDYWGQGTLVTVSSASTKGPSVFPLAPSSKSTSGGTAALGCLVKDYFPEPVTVSWNSGALTSGVHTFPAVLQSSGLYSLSSVVTVPSSSLGTQTYICNVNHKPSNTKVDKKVEPKSCDKTHTCPPCPAPEAAGGPSVFLFPPKPKDTLMISRTPEVTCVVVDVSHEDPEVKFNWYVDGVEVHNAKTKPREEQYNSTYRVVSVLTVLHQDWLNGKEYKCKVSNKALGAPIEKTISKAKGQPREPQVCTLPPSRDELTKNQVSLSCAVKGFYPSDIAVEWESNGQPENNYKTTPPVLDSDGSFFLVSKLTVDKSRWQQGNVFSCSVMHEALHNHYTQKSLSLSPGK chain 4: not shown	–	–	~0.0117	0.0129	–	–
